Assay results taken from patent US20200277350A1 (DINGFU BIOTARGET, published 2020).

Target: T1, Human IL10R1 (R&D, 9100-R1-050) (human, UniProt Q13651 22-235)
T1 construct: Bought protein coated on the ELISA plate; also called hIL10R1; human IL10R1 proteins
T1 sequence (looked up): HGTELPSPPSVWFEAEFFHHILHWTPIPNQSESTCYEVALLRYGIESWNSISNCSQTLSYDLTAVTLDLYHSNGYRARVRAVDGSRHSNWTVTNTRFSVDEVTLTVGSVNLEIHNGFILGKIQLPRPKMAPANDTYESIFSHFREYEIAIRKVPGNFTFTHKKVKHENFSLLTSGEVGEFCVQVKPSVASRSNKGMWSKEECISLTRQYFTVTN
Test: ELISA, plate coated with human IL10R1, detection with goat anti-hIgG-HRP
Description: Human IL10R1 (R&D, 9100-R1-050) was diluted to 5 μg/mL with coating buffer (50 mM Na₂CO₃, NaHCO₃ pH 9.6), 100 μL/well, overnight at 4° C. After washing, the plates were sealed with 3% BSA-PBS for 1 h at 37° C. Then, all samples were respectively diluted from 10000 ng/mL and were diluted 3-fold to a total of 11 concentrations, with the diluent (1% BSA-PBS) as a control, incubated at 37° C. for 2 h. After washing, Goat anti-hIgG-HRP (Sigma, A0170) was added and incubated at 37° C. for 1 h. The soluble one-component TMB substrate developing solution was added, and the developing was performed in dark at room temperature for 5-10 min. 2 N H₂SO₄ 50 μL/well was added to terminate the color development reaction.

EC50: 0.0123 µg/mL
B1: Reverse-(IL10)2-Fc9 (Fc fusion)
chain 1: EPKSSDKTHTCPPCPAPELLGGPSVFLFPPKPKDTLMISRTPEVTCVVVDVSHEDPEVKFNWYVDGVEVHNAKTKPREEQYNSTYRVVSVLTVLHQDWLNGKEYKCKVSNKALPAPIEKTISKAKGQPREPQVYTLPPSRDELTKNQVSLSCGVKGFYPSDIAVEWESNGQPENNYKTTPPVLDSDGSFKLASKLTVDKSRWQQGNVFSCSVMHEALHNHYTQKSLSLSPGKGGGGSGGGGSGGGGSSPGQGTQSENSCTHFPGNLPNMLRDLRDAFSRVKTFFQMKDQLDNLLLKESLLEDFKGYLGCQALSEMIQFYLEEVMPQAENQDPDIKAHVNSLGENLKTLRLRLRRCHRFLPCENKSKAVEQVKNAFNKLQEKGIYKAMSEFDIFINYIEAYMTMKIRNGGGGSGGGGSGGGGSSPGQGTQSENSCTHFPGNLPNMLRDLRDAFSRVKTFFQMKDQLDNLLLKESLLEDFKGYLGCQALSEMIQFYLEEVMPQAENQDPDIKAHVNSLGENLKTLRLRLRRCHRFLPCENKSKAVEQVKNAFNKLQEKGIYKAMSEFDIFINYIEAYMTMKIRN
chain 2: DKTHTCPPCPAPELLGGPSVFLFPPKPKDTLMISRTPEVTCVVVDVSHENPEVKFNWYVDGVEVHNAKTKPREEQYNSTYRVVSVLTVLHQDWLNGKEYKCKVSNKALPAPIEKTISKAKGQPREPQVYTLPPSRDELTKNQVSLWCLVKGFYPSDIAVEWESNGQPENNYKTTPPVLDSDGSFFLYSALTVDKSRWQQGNVFSCSVMHEALHNHYTQKSLSLSPGK
notes: also called proteinaceous heterodimer of Group C
